Source: a protein production outcome set (Wang et al. 2014)

Assay: label from the status in PepcDB records
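Note: failed if final PepcDB status was selected cloned or expressed and not failed if soluble or beyond.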

| Sequence | protein production |
| --- | --- |
| MSPRSIAMCGRCGIRARHSVAPDCCLSVRQATNKCPAVEHHSHGGRRPCTANGGVAFDRFVMTNRFSPRARSTRIVSKVVWRKRSGRDDENKKTRGEHDMSASVQSALSGLVLAAAVAMPALADGLKDEIAPTGKLRVAIAISPAGGAFWSTRTETGYAGVPVDLGKEMAAQLGVGVEYVVHQNSGQITDAASKGTWDVTWLPKDPERESKMMFGPIYEVADATYIVKAGSNVTSFASLDQPGIKVAAVNATTTMRGAVAHLRNAEVTGYQTYDEIFGLLKSGEIDAFALSRDQLNKMAQKIPGTKVLDETFKKTVTAVAVPLGHSLALTFVTKFMNEATINGTLRKAYDNNGLKDSPIRTE | failed |
| MRINILSEDTSNKIAAGEVVERPFSVVKELVENSIDAGAKTINIEIENGGRTLIKVLDDGYGIDKDDIEKAFMPHATSKISKLQDIYSINTLGFRGEALPSIASVSKTTLKSRTKENEFGREISISGGSVDYIKDCGTNIGTHIEVRDLFYNVPAREKFLKSTAKEASSISDIVNRLALAHSEISFRLINNGKRVITTYATDNLIDTIRAIYGKKICDNVISFERHTDLVSVHGYVGNAEISRGSRNNQSIFINKRYIKNKLITAAVENAVKSFMMINKFPFFIIFLDIFPEFVDVNVHPTKSEVKFQNERDIFKIIFDTVHEGIRNSLKESFKVEALKEEEDKLFDIKEDVITKNEIKHDDKIDGYIKKDSFPVPVQIPIDLKRPIENYDNSTKENKDRSFDDFREKDIIKETSQEKETYDIITNKKAKFPELRVIGQFNNTYILAESFEELYIIDQHAAHEKILFEKYREDIKNKGVSSQILITPSVVELLPEDFIYYDENKEVFKNAGFVIEYFGDNTVAIKEVPLFLGKPLVKDLFLEIIDNLKNMGSGETSEVKYRSIATAACKSAVKAYHELTHDEMKTLIQDLRFAEDPFNCPHGRPTIVRLTVTDFEKKFKRIQ | failed |
| AEGRGKARADSLKAGSQGLSANKRRADGSFESVVASSLRKGDVVRVQAGEMIPGDGEVIEGVAAVNEAAITGESAPVIRESGGDRSAVTGNTQVVSDWLLVRIGANPGESTLDRMIALVEGAKRQKTPNEV | failed |
| MNTNVYENTDSETITPLNKRRILPVFLLVGLYAASTAAVMSVLPFYIREMGGSPLIIGIIIATEAFSQFCAAPLIGHLSDRVGRKRILIVTLAIAAISLLLLANAQCILFILLARTLFGISAGNLSAAAAYIADCTHVRNRRQAIGILTGCIGLGGIVGAGVSGWLSRISLGAPIYAAFILVLGAALVAIWGLKDPSTTSRTTDKIASFSARAILKMPVLRVLIIVMLCHFFAYGMYSSQLPVFLSDTFIWNGLPFGPKALSYLLMADGVINIFVQLFLLGWVSQYFSERKLIILIFALLCTGFLTAGIATTIPVLIFAIVCISIADALAKPTYLAALSVHVSPARQGIVIGTAQALIAIADFISPVLGGFVLGYALYGVWIGIAISVAIIGLVTAMIYLSKSSPLIAKPETE | failed |
| MLIRRKIMQYNDMSKEELLVLKESLNKEYAEAKAKGLALDMSRGKPSAKQLDVSLGLLDTINSSSDLKSLDGTDCRNYGVLDGIPEAKKLMADMMGTTPDHVIVYGNASLNIMYDQISRAYTHGILGNTPWCKLDKVKFLCPVPGYDRHFAITERFGIEMINIPMSESGPDMGMVEEYVSKDASVKGIWCVPKYSNPQGYTYSEETVKRMAALKPAAEDFRIFWDNAYVIHDLYDDNKDEIADIISECEKAGNPDMVFEFASTSKVSFPGSGIAALATSANNIADIKKQLTIQTIGHDKLNQLRHVRFFKDINGLKEHMRKHAEFIRPKFEAVESVLEEELSGLGIGSWTEPKGGYFISFDAMDGCAKAIVAKCKEAGVKLTGAGATFPYGKDPKDSNIRIAPSFPTPEEMKQAADLFVLCVKLVSVEKLLENK | failed |
| MDIWNFFTSFIVQSIAFLTHEVGVGEAVAIILFTLIGRLVLMPINLLAMANMYRNKKAISALKPELDKIKVIHKDKPNEIAKSTMALYKKNNIKILDKKSVINIASQGVFGFGMFQALQQIVFNSKFAWIANIAKPDVALALLVGVITYFSMIMMPGSAEQTSTLLFIIPAIICIITLISFPSAIGLYWATSSVTSLLQSLVLNNYFQKQEINKAI | failed |
| MDFLTEWIWFFLFVPLAALGGWIVGRRGGQRHGDTQVSRLSSTYFRGLNYLLNEQPDKAIELFLHIAELDKETFETQVALGHLFRRRGEVDRAIRLHQGLVQRGDLTDQQRVQALLALGEDYMKSGLLDRAETVFTELAQLDQRAPQALRHLIGIYQAERDWEKAIDNATRYEEVTGEPMGKLISQFECELADRYRGLGKTDDALQAIARAYQADGTSVRAGILEGRIEAERGHDEAAVRAFERAARHDPEYLPEIIPALMAAYRRVGDIAGARNFLSEMTEHYRGIAPVLALTQLMEAQDGVAPALAYLGRQLKDRPSVRGESALIDLTLAEGSDPVGTLQDLKHITDQLLVRNPSYRCTRCGFGAKTHHWQCPSCKEWGTVKPLLNYAVV | failed |
| QIDFQVLHDLRQKFPEVPEVVVSRCMLQNNNNLDACCAVLSQESTRYLYGEGDLNFSDDSGI | not failed |
| MPKITVYTGKEVLQIDAKEGSSLLDILAENSLYVEAPCGGKGICGKCKVAVKKDGKPYLENITKEEKRLLTSDELQKGIRLCCNLKVFESLEVFLPHSKIGAKILSGLYTLEHHHHHH | failed |
| MSTPETYKRSALNPETSLLLFLVPNPSNLTPISYTLTIPPPHEKTMLDKHGLLTQPISDVLRKLTTPMVFGMVAILLFNLVDTFFISLLGTDALAAVSFTFPVTFAVNCITMGIGVGLSASIGHLLGEGHSKHAAELTTHGIILAISLILIACALGFFTIDPLFTLLGAEDKLLPLIDEYMSIWYLTIPLLVIPMSSNSAIRATGDTKTPAKIMMLAGLINGILDPLLIFGYGPFPELGIQGAAIASAISWLGALIASFYVLTHKVKLLALPNKNTLISDWKQILTIGSPAALSNALNPISGAILMMMLASQGTVAVASYGAAQRVESLMLLVIMALTSSLSPLVAQNLGAKQPERVKEAIFLAIKFSVAFQLFLYILIVPLSIPISHLFSQDDAVQHGLWMYLICVPFSYGFQGIVMVLVSSLNAMKKPLYSFSWSFMRLFVFTLPTAWIGSQIYGMEGLFIGIAMGNVMGGISAFWYARTRIRFEDAALEERGDTKS | failed |
| MNPAYRKAMLESEIQKLLMEALQQLRDPRLKKDFVTFSRVELSKDKRYADVYVSFLGTPEERKETVEILNRAKGFFRTFIAKNLRLYVAPEIRFYEDKGIEASVKVHQLLVQLGYDPLKDKEKKEEDKEEE | not failed |
| MFSNVNKTTSAEAGKSAFWAMSIFLLLLSIMLLVLGLYYQIVLHHTPAPLLLGIAAGFGLGTPLEIWNFSDPDTLMRVMAFQDRFLIVCFGFSIGLGAILLYLFAAIPGVSPHYGIKDFFVFGVVVGGLLFGVGVGLAGYFPGTIWIALGQGRRDAIYAVFGGLLGALTWSLIFGAARGFFWNTFNYGPITWYSIFGIKSHLEIFGTSLIFGAILLGMFLFLPRYPKQPVKESCGFHLAGKNNKVLTFDDMIDDENKKYPDQNQYLIRLTNESSIRNARSIIVLGIAFTVIAVAVILLRQIFGESTTYSWIGAQLFYAVNPQYAASNPYWNLFGGMHIVNGKPIDLPFSEIGWEPFSDLGTFLGGLISSIFISKRFMKFKKRVPLVWEHRFGPSDKKRFVGSFFGAFLVLFGARMANGCASGHVLSGNIQMAISSFVFLMAVLIGSWLTLYFVMGLKLNSRGYRN | failed |
| MSAIQNGTDEVRVIDTGAPPTRFARGWHCLGLASEFSDGKPHQISAFGTELVVFAGEDGKLNVLNAFCPHMGGNLADGTVKGDTIACPFHDWRWRGDGKCADIPYARRVPPLARTKSWLTLERNGQLFVWNDPQNRKPPAEVTIPEISVFGDEGWTDWVWNKLEVRGSHCREIVDNVVDMAHFFYVHYGMPTYFKNVFEGHVATQVMRSKPRADAVDVKLGTNYDTESASDASYFGPSYMIDKLWTEGDDSGEPNIMLINCHYPISADSFMLQYGVMVKKPEGVPDAVANGIAAQVAAGVAIGFEQDVEIWKKKSSIDNPLLSEEDGPVYQLRRWYEQFYVDVEDINPEMTNRFEFEIDTDRALKNWQVEVDANLAAGRSAIPSPVS | not failed |
| MTTRRLALFDLDHTLLPLDSDYQWADFLARTGRAGDPAEARRRNDDLMERYNRGELTAEQAAEFMLGLLAAHSPVELAAWHEEFMRDVIRPSLTAQAVDVVRGHLAAGDLCALVTATNSFVTAPIARAFGVQHLIATDPEYRDGRYTGRIEGTPSFREGKVVRVNQWLAGMGLALGDFAESYFYSDSVNDVPLLEAVTRPIAANPSPGLREIAQARGWQVIDLFDHLEDAKS | not failed |
| MAKEGEHSGAKEVKLTKPKISLSDLTFVIYVTTREKLSSSTISCEEIPLKKCGAELECGSNDRFHIQVENLSHMGISKSRMAGVKIECEVIYKEDSEDEAVVRIVNAERPLGTNFGWLNNDLLAPLAHRGLTAEIQLSFNSELLDKIDLQIFHRGEGRYFSQDDTLGYLQCFFPSKI | failed |
| MKNLHRCKKIFLRVFSRSARRQREPLQDAVLDLHQGAFGGFAPCSAPVQLKRKRPMTKPETTAPTAKAVLPIGLLIAVLAMVAVLLLPLPADLPVAGHRMLAILAFAVVVWISEAVSYEASAIMITALMAFLIGTAPTLQDPSQLYGSSAAIGLALTGFSNSALALVAGALFIAAAMTHTGLDRRIALVTLTRVGTSTRRILIGAIAVTILLSLLVPSATARSACVVPIMMGVIAAFGVDKRSNIAAGLMIVVAQGTSIWNVGIQTAAAQNLLTVGFMDKMLGQRVAWLDWLIAGAPWAVIMSLVLLWLVLKLLPPETDSIPGGKEAVAQSLADIGPMTGPQKRLLTVSVLLLLAWSTEGKLHPFDTTTTTYAGLVILLLPRIGIMTWKDVQSRIPWGTVIVFGVGISLGSALLSTQAGQWLGSQVVAHTGLDQVGPLAVFAILAAFLILIHLGFASATALTSALLPILIAVLQTLPGEFSRLGMTMLLGFVVSYGFILPINAPQNMVCLGTETFNARQFAKVGLLVTLIGYLLMLVFAMTWWKWLGWM | failed |
| MFFNKKNNQDELKKLAATEAAKSITTEITLGVGTGSTVGFLIEELVNYRDKIKTVVSSSEDSTRKLKALGFDVVDLNYAGEIDLYIDGADECNNHKELIKGGGAALTREKICVAAAKKFICIIDESKKVNTLGNFPLPIEVIPMARSYIARQIVKLGGQPVYREQTITDNGNVILDVYNLKIDNPLKLETELNQITGVVTNGIFALKPADTVIMATKDSNIVVL | not failed |
| MTALRQDIDPNGLLEYSVVYTDRALNHMSKAFQEVMNDLLSNLKTVYNAEAAVIIPGSGTYGMEAVARQLTIDEDCLIIRNGWFSYRWTQILEKGKFAKSSTVLTAERTEDTEAPKPFAPVDIETAVAKIKEDKSAIVYAPHVETSSGIILSEEYIKALSEAVHSVGGLLVIDCIASGCVWLDMKELGIDVLISAPQKGWSSTPCAGLVMLSAAAIKKVESTESNCFSLDLKQWLTIMRAYENGGHAYHATMPTDSLRQFRDAILEAKEIGFDILRDAQWELGNRVRKVLTDKGIESVAAEGFEAPGVVVSYTERDDMHKGSAFAEAGLQIAAGVPLKVGEPDNFKTFRLGLFGLDKLTDIDGTVERFEKALDEVLAK | not failed |
| MSYSKEVNRYVFPLVATNLVQVLIGQISLHFAVDNSNAALSGISVIQNFLFAFGGILGAFSLSFNIRGAKAFYNKEYQRFKNLLKSSLLIDIGIGLSFILFCLGLSRPFLKVFYGFDGQLLELSTTYFKIMSPYILLTLLIFLFSNLLKIEKKTKPIFWIGTLSSVLDVLLNYYLVPLLGIRGAAISSILSLLVIVLGYFIFVKSLVFQALQEASTSKLELIRFGIPLSIQEILESVLFIMAFDAFMGRQGLRILSIYAVVSQLFAIVRTPAFMYAGSIAIFLPEARKKEDEKALIATIFRNSYAVIFIFACLVTVFSNPFAHFLSDEVIDNVLPFTLYTVVVMGATPLYESSKMLLQSNDDEQWVLKITSIVNILSILILLVLQLMGKQTYQSLYGIYGLSLIVLSILFIKRNSEKRVSSRKMTM | failed |
